Results published in PMC5062937, “Aadh2p: an Arxula adeninivorans alcohol dehydrogenase involved in the first step of the 1-butanol degradation pathway” (Microbial Cell Factories, 2016).

Key:
Experiment in all cases: purified protein
Type in all cases: biochemical, Blastobotrys adeninivorans
[1] = tested on: T1, NC(=O)c1ccc[n+]([C@@H]2O[C@H](COP(=O)(O)OP(=O)(O)OC[C@H]3O[C@@H](n4cnc5c(N)ncnc54)[C@H](O)[C@@H]3O)[C@@H](O)[C@H]2O)c1; conditions: oxidation, 100 mM ethanol, 50 mM Tris-HCl pH 9.0, 30 °C, pH 9.0, varied: cofactor
T1 construct: full length, N-terminal His6 tag (MHHHHHH then VPSPDI), expressed in A. adeninivorans G1212/YIC102-6H-AADH2, Ni-NTA purified; ORF 1068 bp, 356 residues printed; native 88 kDa, dimer

CC=O = tested on: T2, CC=O; conditions: reduction, 0.8 mM NADH, 50 mM sodium phosphate pH 7.5, 30 °C, pH 7.5
T2 construct: full length, N-terminal His6 tag (MHHHHHH then VPSPDI), expressed in A. adeninivorans G1212/YIC102-6H-AADH2, Ni-NTA purified; ORF 1068 bp, 356 residues printed; native 88 kDa, dimer

[2] = tested on: T3, NC(=O)C1=CN([C@@H]2O[C@H](COP(=O)(O)OP(=O)(O)OC[C@H]3O[C@@H](n4cnc5c(N)ncnc54)[C@H](O)[C@@H]3O)[C@@H](O)[C@H]2O)C=CC1; conditions: reduction, 20 mM acetaldehyde, 50 mM sodium phosphate pH 7.5, 30 °C, pH 7.5, varied: cofactor
T3 construct: full length, N-terminal His6 tag (MHHHHHH then VPSPDI), expressed in A. adeninivorans G1212/YIC102-6H-AADH2, Ni-NTA purified; ORF 1068 bp, 356 residues printed; native 88 kDa, dimer

CCCCO = tested on: T4, CCCCO; conditions: oxidation, 1 mM NAD+, 50 mM Tris-HCl pH 9.0, 30 °C, pH 9.0
T4 construct: full length, N-terminal His6 tag (MHHHHHH then VPSPDI), expressed in A. adeninivorans G1212/YIC102-6H-AADH2, Ni-NTA purified; ORF 1068 bp, 356 residues printed; native 88 kDa, dimer

CCCC=O = tested on: T5, CCCC=O; conditions: reduction, 0.4 mM NADH, 50 mM sodium phosphate pH 7.5, 30 °C, pH 7.5
T5 construct: full length, N-terminal His6 tag (MHHHHHH then VPSPDI), expressed in A. adeninivorans G1212/YIC102-6H-AADH2, Ni-NTA purified; ORF 1068 bp, 356 residues printed; native 88 kDa, dimer

6h-Aadh2p (Blastobotrys adeninivorans)
Km [1]: 500 µM | kcat [1]: 2.2 s⁻¹ | kcat/Km [1]: 4000 M⁻¹ s⁻¹ | Km (CC=O): 26500 µM | kcat (CC=O): 15.2 s⁻¹ | kcat/Km (CC=O): 600 M⁻¹ s⁻¹ | Km [2]: 70 µM | kcat [2]: 14.7 s⁻¹ | kcat/Km [2]: 224000 M⁻¹ s⁻¹ | Km (CCCCO): 300 µM | kcat (CCCCO): 1310 s⁻¹ | kcat/Km (CCCCO): 4.37e+06 M⁻¹ s⁻¹ | Km (CCCC=O): 500 µM | kcat (CCCC=O): 11900 s⁻¹ | kcat/Km (CCCC=O): 2.37e+07 M⁻¹ s⁻¹
